± gives the uncertainty stated by the source.
B1: Tumor protein p73, residues 487 to 549; numbered along this chain, O15350 (parent)
chain: YHADPSLVSFLTGLGCPNCIEYFTSQGLQSIYHLQNLTIEDLGALKIPEQYRMTIWRGLQDLK

Variants of: B1
Experiment: abundance fitness (aPCA) (normalised: wild type 0, dead -1); higher = more abundant; growth selection in yeast, the domain comes from the species named
Conditions: Homo sapiens

| Variant | abundance fitness |
| --- | --- |
| Q26E | 0.011 ± 0.038 |
| Q26G | -0.034 ± 0.035 |
| W56A | 0.014 ± 0.037 |
| W56L | 0.017 ± 0.04 |
| W56I | 0.086 ± 0.058 |
| W56D | -0.241 ± 0.056 |
| W56M | -0.049 ± 0.05 |
| W56K | -0.106 ± 0.044 |
| I55P | -1.08 ± 0.16 |
| I55R | -0.807 ± 0.056 |
| I55T | -0.598 ± 0.077 |
| I55E | -0.869 ± 0.14 |
| F10W | -0.296 ± 0.037 |
| F10L | -0.307 ± 0.038 |
| F10S | -0.867 ± 0.083 |
| F10T | -0.823 ± 0.11 |
| F10K | -1.32 ± 0.31 |
| P5K | 0.238 ± 0.036 |
| P5G | 0.134 ± 0.038 |
| P5M | 0.334 ± 0.038 |
| P5D | 0.201 ± 0.07 |
| P5T | 0.211 ± 0.04 |
| P5N | 0.225 ± 0.084 |
| G27T | -0.172 ± 0.075 |

| Variant | abundance fitness |
| --- | --- |
| G27M | -0.716 ± 0.069 |
| G27K | -0.089 ± 0.043 |
| G27S | -0.07 ± 0.035 |
| G27D | 0.06 ± 0.044 |
| G27A | -0.304 ± 0.075 |
| G27P | -0.367 ± 0.065 |
| L62I | -0.044 ± 0.07 |
| A3V | 0.137 ± 0.051 |
| A3E | 0.197 ± 0.063 |
| A3Y | 0.201 ± 0.072 |
| A3N | 0.024 ± 0.16 |
| A3F | 0.36 ± 0.11 |
| A3H | 0.101 ± 0.094 |
| A3I | 0.405 ± 0.089 |
| A3L | 0.311 ± 0.042 |
| A3C | 0.426 ± 0.062 |
| S25G | 0.029 ± 0.031 |
| S25F | -0.197 ± 0.069 |
| S25C | 0.012 ± 0.059 |
| S25Q | 0.051 ± 0.043 |
| S25L | -0.055 ± 0.034 |
| S25P | -0.179 ± 0.052 |
| S25M | -0.051 ± 0.047 |
| A44I | -0.218 ± 0.2 |

| Variant | abundance fitness |
| --- | --- |
| A44Y | -0.007 ± 0.067 |
| A44M | 0.006 ± 0.05 |
| A44Q | 0.036 ± 0.052 |
| A44N | -0.061 ± 0.13 |
| A44G | 0.072 ± 0.031 |
| I31P | -0.048 ± 0.052 |
| I31F | -0.294 ± 0.21 |
| I31K | -0.11 ± 0.051 |
| I31Y | -0.133 ± 0.064 |
| I31C | -0.011 ± 0.087 |
| I31G | -0.199 ± 0.038 |
| I31W | -0.025 ± 0.038 |
| I31R | -0.057 ± 0.033 |
| I31M | 0.012 ± 0.053 |
| R52D | -0.425 ± 0.47 |
| R52M | -0.146 ± 0.063 |
| R52L | 0.004 ± 0.042 |
| R52T | 0.009 ± 0.045 |
| R52H | 0.054 ± 0.061 |
| R52Y | 0.095 ± 0.24 |
| R52G | -0.114 ± 0.046 |
| R52S | -0.066 ± 0.05 |
| L7T | -0.157 ± 0.053 |
| L7P | -0.782 ± 0.11 |

| Variant | abundance fitness |
| --- | --- |
| L7E | -0.512 ± 0.095 |
| P17I | -0.122 ± 0.087 |
| P17S | 0.015 ± 0.031 |
| P17A | -0.081 ± 0.043 |
| P17E | 0.047 ± 0.039 |
| P17F | 0.036 ± 0.061 |
| L59W | -0.213 ± 0.05 |
| L28D | -0.261 ± 0.081 |
| L28G | -0.289 ± 0.032 |
| L28C | 0.021 ± 0.044 |
| L28E | -0.177 ± 0.061 |
| L28W | -0.16 ± 0.039 |
| L28Y | -0.058 ± 0.051 |
| N36Y | -0.202 ± 0.091 |
| N36L | -0.061 ± 0.034 |
| N36M | -0.007 ± 0.054 |
| N36C | -0.567 ± 0.33 |
| N36F | -0.198 ± 0.072 |
| T38P | -0.201 ± 0.054 |
| T38F | -0.517 ± 0.13 |
| T38R | -0.049 ± 0.028 |
| T38S | 0.018 ± 0.035 |
| T38K | 0.103 ± 0.071 |
| T38W | -0.415 ± 0.064 |

| Variant | abundance fitness |
| --- | --- |
| T38G | -0.088 ± 0.036 |
| P48Y | -1.13 ± 0.21 |
| P48D | -0.054 ± 0.051 |
| P48C | -0.51 ± 0.071 |
| P48E | -0.067 ± 0.042 |
| P48L | -1.1 ± 0.12 |
| P48M | -0.965 ± 0.091 |
| P48F | -1.3 ± 0.37 |
| P48A | -0.091 ± 0.043 |
| P48W | -1.07 ± 0.13 |
| Y1A | 0.003 ± 0.28 |
| Y1I | 0.336 ± 0.16 |
| E21K | -0.048 ± 0.052 |
| E21P | -0.053 ± 0.049 |
| E21Y | -0.042 ± 0.073 |
| L14K | -0.174 ± 0.1 |
| L14P | -0.949 ± 0.18 |
| L14G | -0.989 ± 0.079 |
| L14I | 0.009 ± 0.051 |
| L14Y | -0.315 ± 0.095 |
| L14A | -0.193 ± 0.042 |
| S9F | -0.194 ± 0.056 |
| S9T | -0.052 ± 0.049 |
| S9H | -0.345 ± 0.16 |

| Variant | abundance fitness |
| --- | --- |
| Y22R | -0.042 ± 0.029 |
| Y22V | -0.079 ± 0.038 |
| I47L | 0.021 ± 0.033 |
| I47T | -0.431 ± 0.061 |
| I47P | -1.07 ± 0.17 |
| I47R | -0.962 ± 0.063 |
| E40P | -0.152 ± 0.074 |
| E40S | -0.048 ± 0.053 |
| E40V | -0.097 ± 0.049 |
| E40A | 0.007 ± 0.048 |
| E40C | 0.033 ± 0.093 |
| C19M | 0.048 ± 0.036 |
| C19E | -0.236 ± 0.058 |
| C19W | -0.454 ± 0.065 |
| C19N | -0.511 ± 0.13 |
| Q60F | -0.096 ± 0.071 |
| Q60K | 0.117 ± 0.044 |
| Q60L | -0.013 ± 0.04 |
| Q60E | 0.101 ± 0.044 |
| Q60V | -0.041 ± 0.034 |
| Q35M | -0.058 ± 0.051 |
| Q35A | -0.019 ± 0.042 |
| Q35W | -0.245 ± 0.041 |
| Q35Y | 0.031 ± 0.057 |

| Variant | abundance fitness |
| --- | --- |
| Q35V | 0.055 ± 0.046 |
| Q35N | 0.192 ± 0.071 |
| D61A | -0.136 ± 0.039 |
| D61H | 0.039 ± 0.088 |
| D61K | -0.103 ± 0.047 |
| Y32E | 0.095 ± 0.053 |
| Y32L | 0.105 ± 0.032 |
| Y32T | 0.014 ± 0.059 |
| Y32A | 0.012 ± 0.053 |
| Y32R | 0.071 ± 0.03 |
| Y32V | 0.143 ± 0.039 |
| Y32I | 0.097 ± 0.089 |
| R57W | -0.114 ± 0.039 |
| R57N | -0.134 ± 0.11 |
| R57L | -0.069 ± 0.038 |
| R57C | -0.192 ± 0.12 |
| R57Q | -0.036 ± 0.042 |
| R57H | 0.012 ± 0.12 |
| D4N | -0.15 ± 0.092 |
| Q29F | -0.005 ± 0.056 |
| Q29V | -0.016 ± 0.031 |
| Q29N | -0.108 ± 0.21 |
| Q29P | 0.006 ± 0.037 |

Reference: the Human Domainome abundance scans (Beltran et al. 2025)
